Test: yeast display, Sf9 membrane polyspecificity reagent, FACS + sequencing; frameworks hold sequencing errors
In short: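 Nanobodies from a synthetic yeast display library (Saccharomyces cerevisiae BJ5465), induced 36–48 hours with galactose, were stained 1 hour at 4 °C with 10% biotinylated, detergent-solubilized Sf9 membrane reagent, enriched on streptavidin microbeads, then FACS-sorted. Anti-HA (expression) and streptavidin (reagent binding) fluorescence set low and high (top ~1%) gates. Polyreactivity labels come from the gate of origin. Genes were colony-PCR amplified, MiSeq 2 × 250 sequenced and filtered by CDR length.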

QVQLVESGGGLVQAGGSLRLSCAASGNTFRSYVMGWYRQAPGKERELVADISSGDGTNYADSVKGRFTISRDNAKNTVYLQMNSLKPEDTAVYYCAAEWSEESDYWGQGTQVTVSS
polyreactivity (PSR sort gate): low polyreactivity

QVQLVESGGGLVQAGGSLRLSCAASGNTFRWYAMGWYRQAPGKEREFVADITVRGGSTYYADSVKGRFTISRDNAKNTVYLQMNSLKPEDTAVYYCAVDFRRYPGFDYWGQGTQVTVSS
polyreactivity (PSR sort gate): low polyreactivity

QVQLVESGGGLVQAGGSLRLSCAASGNTFRWYAMGWYRQAPGKERELVATISRRGGITYYADSVKGRFTISRDNAKNTVYFQMNSLKPEDTAVYYCAAYSGSGLGAYDYWGQGTQVTVSS
polyreactivity (PSR sort gate): high polyreactivity

QVQLVESGGGLVQAGGSLRLSCAASGNTFRYYAMGWYRQAPGKERDLVAAISESGGRTYYADSVKGRFTISRDNAKKTVYLQMNSLKPEDTAFYYCAASRWARTWWYGYNYWGQGTQVTVSS
polyreactivity (PSR sort gate): high polyreactivity

QVQLVESGGGLVQAGGSLRLSCAASGNTFSVYAMGWYRQAPGKERELVAGITTSGGSTYYADSVKGRFTISRDNAKNTVYLQMNSLKPEDTAVYYCATDISTSYYYQYSSFYQYDSWGQGTQVTVSS
polyreactivity (PSR sort gate): low polyreactivity

QVQLVESGGGLVQAGGSLRLSCAASGNTFTRNAMGWYRQAPGKERELVAAITGRGGTYYADSVKGRFTISRDNAKNTVYLQMNSLKPEDTAVYYCNAVYRSSYQKGSMDYWGQGTQVTVSS
polyreactivity (PSR sort gate): high polyreactivity

QVQLVESGGGLVQAGGSLRLSCAASGNTFTWYTIGWYRQAPGKERELVAVITSDGSKYYADSVKGRFTISRDNAKNTFYLQMNSLKPEVTAVYYCTVGGGTNYGYGYWYGFYYWGQGTQVTVYS
polyreactivity (PSR sort gate): low polyreactivity

QVQLVESGGGLVQAGGSLRLSCAASGNTFTWYTIGWYRQAPGKERELVAVSTSDGSTYYADSVKGRFTISRDNAKHTVYLQMNSLKPEDTAVYYCTAGGGTNYGSGYWYGYYYWGQGTQVTVSS
polyreactivity (PSR sort gate): low polyreactivity

QVQLVESGGGLVQAGGSLRLSCAASGNTFVGNAMGWYRQAPGKERELVAVITWSGGSTYYADSVKGRFTISRDNAKNTVYLQMNSLKPEDTAVYYCAARKFGTSVTHRGYWGQGTQVTVSS
polyreactivity (PSR sort gate): low polyreactivity

QVQLVESGGGLVQAGGSLRLSCAASGNTFVYKDMGWYRQAPGKERELVADIRYSGSTYYADSVKGRFTISRDNAKNTVYLQMNSLKPEDTAVYYCAKAYYVLSWMGYWGQGTQVTVSS
polyreactivity (PSR sort gate): low polyreactivity

QVQLVESGGGLVQAGGSLRLSCAASGNTFVYNDMGWYRQAPGKERELVADIRYSGSTYYADSVKGRFTISRDNAMNSVYLQMNSLKPEDTAVYYCAKAYYVLSWMGYWGQGTQVTVSS
polyreactivity (PSR sort gate): low polyreactivity

QVQLVESGGGLVQAGGSLRLSCAASGNTFWPYAMGWYRQAPGKERELVAAISWRGSRTYYADSVKGRFTISRDNAKNTVYLQMNSLKPEDTAVYYCAADYKYVGSEYGYWGQGTQVNVSS
polyreactivity (PSR sort gate): low polyreactivity

QVQLVESGGGLVQAGGSLRLSCAASGNTFWRYTMGWYRQAPGKERELVAAISSSGGSTYYADSVKGRFTISRDNAKNTVYLQMNSLKPEDTAVYYCAADSGSSRSRRGYEYWGQGTQVTVSS
polyreactivity (PSR sort gate): high polyreactivity

QVQLVESGGGLVQAGGSLRLSCAASGNTFWSYAMGWYRQAPGKERELVAAITQRGGSTYYADSVKGRFTISRDNAKNNVDLQMNSLKPEDTAVYYCAADTYYKGDYWGQGTQVTVSS
polyreactivity (PSR sort gate): high polyreactivity

QVQLVESGGGLVQAGGSLRLSCAASGNTFYANTMGWYRQAPGKERELVAAITVRGASTNYADSVKGSFTISRDNAKNTVYLQMNSLKPEDTAVYYCNAVGLRSPWHQDYLIRYDYRGQGTQVTVSS
polyreactivity (PSR sort gate): low polyreactivity

QVQLVESGGGLVQAGGSLRLSCAASGNTFYFNAMGWYRQAPGKERELVAAITSGGNTNYADSVKGRFTISRDHAKNTFNLQMNSLKPEDSAVYYCNVPRFSPIRNYDYWGQGTQVTVSS
polyreactivity (PSR sort gate): high polyreactivity

QVQLVESGGGLVQAGGSLRLSCAASGNTFYFYAMGWYRQAPGKERELVAAIRWSGSRTYADSVKGRFTISRDNAKNTVYLQMNSLKPEDTAVYYCNADSIWGYDYWGQGTQVTVSS
polyreactivity (PSR sort gate): high polyreactivity

QVQLVESGGGLVQAGGSLRLSCAASGNTFYFYAMGWYRQAPGKERELVASITRRGGSTYYADSVKGRFTISRDNAKNTVYLQMNSLKPEDTAVYYCARYPARYGGYYDYDYWGQGTQVTVSS
polyreactivity (PSR sort gate): high polyreactivity

QVQLVESGGGLVQAGGSLRLSCAASGNTFYGYTMGWYRQAPGKERELVAAISSRGGSTYYADSVKGRFTISRDNAKNTVYLQMISLKPEDTAVYYCAAVRPVKKFPYCYWGQGTQVTVSS
polyreactivity (PSR sort gate): high polyreactivity

QVQLVESGGGLVQAGGSLRLSCAASGNTFYLYAMGWYRQAPGKERELVASITGGTRTNYADSVKGRFTISRDNAKNTVYLQMNSLKPEDTAVYYCAKTYPRTVGKYLSRGGYYYWGQGTQVTVSS
polyreactivity (PSR sort gate): high polyreactivity

QVQLVESGGGLVQAGGSLRLSCAASGNTFYQYAMGWYRQAPGKERELVAAIDWSGGSTYADSVKGRFTISRDNAKNTVYLQINSLKPEDTAVYYCNASVKPSNVWSRGYDYWGQGTQVTVSS
polyreactivity (PSR sort gate): low polyreactivity

QVQLVESGGGLVQAGGSLRLSCAASGNTFYRNAMGWYRQAPGKERELVAAISTTGVSTYYADSVKGRFTISRDNAKNTVYVQMTSLKPEDTAVYYCAAEIIGYHTIYDYWGQGTQVTVSS
polyreactivity (PSR sort gate): low polyreactivity

QVQLVESGGGLVQAGGSLRLSCAASGNTFYSYAMGWYRPAPGKERELVAAITWGGRTKYADSVKGRFTISRDNAKNTVYLQMNSLKPEDTAVYYCAARLYHGKTKYDYWGQGTQVTVSS
polyreactivity (PSR sort gate): high polyreactivity

QVQLVESGGGLVQAGGSLRLSCAASGNTFYVNVMGWYRQAPGKEREFVAAISTRGVSTSYADSVKGRFTISRDNAKNTVYLQMNSLKPEDTAVYYCAASFRRPQPKGTTYGYWGQGTQVTVSS
polyreactivity (PSR sort gate): high polyreactivity

QVQLVESGGGLVQAGGSLRLSCAASGNTFYWNAMGWYRRAPGKERELVAAISTTGVSTYYADSVKGRFTISRDKAKNTVYLQMNSLKPEDTAVYFCAAEIIGYHTIYDYWGQGTQVTVSS
polyreactivity (PSR sort gate): low polyreactivity

QVQLVESGGGLVQAGGSLRLSCAASGNTINVNTMGWYRQAPGKERELVAAISKRGGSTYYADSVKGRFTISRDNAKNTVYLQMNSLKPEDTAVYYCAKQVSLPRYHYGSAPYGYWGQGTQVTVSS
polyreactivity (PSR sort gate): high polyreactivity

QVQLVESGGGLVQAGGSLRLSCAASGNTLAKYAMGWYRQAPGKERELVAAISWSGGRTFYADSVKGRFTISRDNAKNTVYLQMNSLKPEDSAVYYCNKVKGQSFSSYGYWGQGTQVTVSS
polyreactivity (PSR sort gate): high polyreactivity

QVQLVESGGGLVQAGGSLRLSCAASGNTLAYYDMGWYRQAPGKESELVAAITSGGTTNYADSVKGRFTISRDNAKNTVYLQMNSLKPEDTAVYYSAALGIGSSRRFSGYVYWGQGTQVTVSS
polyreactivity (PSR sort gate): low polyreactivity

QVQLVESGGGLVQAGGSLRLSCAASGNTLDAYTMGWYRQAPGKERELVAAISRGGTRTYYADSVKGRFTISRDNAKNTVYLQMNSLKPEDTAVYYCNKVRDYSYDSWGQCTQVTVSS
polyreactivity (PSR sort gate): high polyreactivity

QVQLVESGGGLVQAGGSLRLSCAASGNTLHVYAMGWYRQAPGKERELVARITGGGRTYYADSVKGRFTISRDNAKNTVYLQMNSLKTEDTAVYYCATDYYGHKVLYDYWGQGTQVTVSS
polyreactivity (PSR sort gate): low polyreactivity

QVQLVESGGGLVQAGGSLRLSCAASGNTLRVYALGWYRQAPGKERELVAAISYSSVNTYYADSVKGRFTISRDNAKNTVYLQMNSLKPEDTAVYYCAADYYYYRRTQYDLRGYPYYYWGQGTQVTVSS
polyreactivity (PSR sort gate): low polyreactivity

QVQLVESGGGLVQAGGSLRLSCAASGNTLTYNVMGWYRQAPGKDWDLVAAISGRGGRTYYADSVKGRFTISRDNAKNTVYLQMNSLKPEDTAVYYCAATSRNGESGGFYYWGQGTQVTVSS
polyreactivity (PSR sort gate): high polyreactivity

QVQLVESGGGLVQAGGSLRLSCAASGNTLWRNAMGWYRQAPGKERELVATISSVGTYYADSVKGRFTISRDNAKNSVYFQMNSLKPEDTAVYYCAARIWAFYSRRYFWGQGTQVTVSS
polyreactivity (PSR sort gate): high polyreactivity

QVQLVESGGGLVQAGGSLRLSCAASGNTSVPYAMGWYRQAPGKERELVARITWSTGRTYYADSVKGRFTISRDNAKNTVYLQMNSLKPVDTAVYYCATEAWLPGSGGDYWGQVTQVTVSS
polyreactivity (PSR sort gate): low polyreactivity

QVQLVESGGGLVQAGGSLRLSCAASGNTYIRNVMGCYRQAPGKERELVAGIRTGGSTFYADSVKGRFTISRDNAKNPVYLQMNSLKPEDTAVYYCAGYQLRLVYGYGYWGQGTQVTVSS
polyreactivity (PSR sort gate): low polyreactivity

QVQLVESGGGLVQAGGSLRLSCAASGPIFAYNAMGWYRQAPGKERELVAAISYSGGSTYYADSVKGRFTISRDNAKNTVYLQMNSLKPEDTAVYYCNAVYRYRTYRYDYWGQGTQVTVSS
polyreactivity (PSR sort gate): high polyreactivity

QVQLVESGGGLVQAGGSLRLSCAASGPIFAYNAMGWYRQATGKERELVAAISYSGGSTYYPDSVKGRFTISRDNEKNSVYLQMNSLKPEDTAVYYCNAVYRYRTYRYDYWGQGTQVTVSS
polyreactivity (PSR sort gate): high polyreactivity

QVQLVESGGGLVQAGGSLRLSCAASGPISAIYDMGWDRQAPGKERELVASISGGTSTYYADSVKGRFTISRDNAKNTVYLQMNSLKPEDTAVYYCNAEASSYHGVEDEYDYWGQGTQVTVSS
polyreactivity (PSR sort gate): low polyreactivity

QVQLVESGGGLVQAGGSLRLSCAASGPTFGVYAKGWDRQAPGKEREFVAAISSTGGSTYYADSVKGRFTISRDNAKNTVYLQMNSLKPEDTAVYYCAARLHTYGYSYGYWGQGTQVTVSS
polyreactivity (PSR sort gate): high polyreactivity

QVQLVESGGGLVQAGGSLRLSCAASGPTFYKYAMGWYRQAPGKERELVATITRRGGSTYYADSVKGRFTISRDNAKNTVYLQMNSLKPEDTAVYYCAKEIFLKGPDGHDYWGQGTQVTVSS
polyreactivity (PSR sort gate): low polyreactivity

QVQLVESGGGLVQAGGSLRLSCAASGPTFYKYAMGWYRQAPGKERELVATITRRGGSTYYADSVKGRFTISRDNAKNTVYLQMNSLKPEDTAVYYCAKEIFQKGPDGHDYWGQGTQVTVSS
polyreactivity (PSR sort gate): low polyreactivity

QVQLVESGGGLVQAGGSLRLSCAASGPTLHAYTMGWYRQAPGKERELVAAITRGGGNTYYADSVKGRFTISRDNAKNTVYLQMNSLKPEDTAVYYCNADVSGYLWYEYDYWGQGTQVTVSS
polyreactivity (PSR sort gate): low polyreactivity

QVQLVESGGGLVQAGGSLRLSCAASGRICEVYAMGWYRQAPGKERELVAAINSGGSTRYADSVKGRFTISRDNAKNTVYLQMNSLKPEDTAVYYCNARPGYYRYLRGYNYWGQGTQVTVSS
polyreactivity (PSR sort gate): low polyreactivity
